In PMC6804253, “Predicting and Experimentally Validating Hot-Spot Residues at Protein–Protein Interfaces” (ACS Chemical Biology, 2019):

How the values were obtained:
[1] = tested on: PPIs of the SKEMPI data set (by PDBID); conditions: single mutation to alanine, sheet sortedByGroup, r_group FAMILYVW; ref SKEMPI; cited from earlier work
[2] = tested on: PPIs of the SKEMPI data set (by PDBID); assay: SKEMPI experimental ΔΔG, single mutations to alanine; type: binding; conditions: class of the SKEMPI experimental ΔΔG

B1: 1A4Y WA261A (protein, UniProt P13489 2-461, looked up, variant W261A)
Ribonuclease inhibitor: SLDIQSLDIQCEELSDARWAELLPLLQQCQVVRLDDCGLTEARCKDISSALRVNPALAELNLRSNELGDVGVHCVLQGLQTPSCKIQKLSLQNCCLTGAGCGVLSSTLRTLPTLQELHLSDNLLGDAGLQLLCEGLLDPQCRLEKLQLEYCSLSAASCEPLASVLRAKPDFKELTVSNNDINEAGVRVLCQGLKDSPCQLEALKLESCGVTSDNCRDLCGIVASKASLRELALGSNKLGDVGMAELCPGLLHPSSRLRTLAIWECGITAKGCGDLCRVLRAKESLKELSLAGNELGDEGARLLCETLLEPGCQLESLWVKSCSFTAACCSHFSSVLAQNRFLLELQISNNRLEDAGVRELCQGLGQPGSVLRVLWLADCDVSDSSCSSLAATLLANHSLRELDLSNNCLGDAGILQLVESVRQPGCLLEQLVLYDIYWSEEMEDRLQALEKDKPSLRVIS
[1]
  sk_ddG_kJ (SKEMPI experimental ΔΔG): 0.38 kJ
[2]
  sk_class: Neutral (neutral (little effect) 4.184 kJ/mol < ΔΔG > −4.184 kJ/mol)

B2: 1A4Y WA375A (protein, UniProt P13489 2-461, looked up, variant W375A)
Ribonuclease inhibitor: SLDIQSLDIQCEELSDARWAELLPLLQQCQVVRLDDCGLTEARCKDISSALRVNPALAELNLRSNELGDVGVHCVLQGLQTPSCKIQKLSLQNCCLTGAGCGVLSSTLRTLPTLQELHLSDNLLGDAGLQLLCEGLLDPQCRLEKLQLEYCSLSAASCEPLASVLRAKPDFKELTVSNNDINEAGVRVLCQGLKDSPCQLEALKLESCGVTSDNCRDLCGIVASKASLRELALGSNKLGDVGMAELCPGLLHPSSRLRTLWIWECGITAKGCGDLCRVLRAKESLKELSLAGNELGDEGARLLCETLLEPGCQLESLWVKSCSFTAACCSHFSSVLAQNRFLLELQISNNRLEDAGVRELCQGLGQPGSVLRVLALADCDVSDSSCSSLAATLLANHSLRELDLSNNCLGDAGILQLVESVRQPGCLLEQLVLYDIYWSEEMEDRLQALEKDKPSLRVIS
[1]
  sk_ddG_kJ (SKEMPI experimental ΔΔG): 4.31 kJ
[2]
  sk_class: Positive (positive (a hot residue) ΔΔG ≥ 4.184 kJ/mol)

B3: 1A4Y WA318A (protein, UniProt P13489 2-461, looked up, variant W318A)
Ribonuclease inhibitor: SLDIQSLDIQCEELSDARWAELLPLLQQCQVVRLDDCGLTEARCKDISSALRVNPALAELNLRSNELGDVGVHCVLQGLQTPSCKIQKLSLQNCCLTGAGCGVLSSTLRTLPTLQELHLSDNLLGDAGLQLLCEGLLDPQCRLEKLQLEYCSLSAASCEPLASVLRAKPDFKELTVSNNDINEAGVRVLCQGLKDSPCQLEALKLESCGVTSDNCRDLCGIVASKASLRELALGSNKLGDVGMAELCPGLLHPSSRLRTLWIWECGITAKGCGDLCRVLRAKESLKELSLAGNELGDEGARLLCETLLEPGCQLESLAVKSCSFTAACCSHFSSVLAQNRFLLELQISNNRLEDAGVRELCQGLGQPGSVLRVLWLADCDVSDSSCSSLAATLLANHSLRELDLSNNCLGDAGILQLVESVRQPGCLLEQLVLYDIYWSEEMEDRLQALEKDKPSLRVIS
[1]
  sk_ddG_kJ (SKEMPI experimental ΔΔG): 6.19 kJ
[2]
  sk_class: Positive (positive (a hot residue) ΔΔG ≥ 4.184 kJ/mol)

B4: 1A4Y YA437A (protein, UniProt P13489 2-461, looked up, variant Y437A)
Ribonuclease inhibitor: SLDIQSLDIQCEELSDARWAELLPLLQQCQVVRLDDCGLTEARCKDISSALRVNPALAELNLRSNELGDVGVHCVLQGLQTPSCKIQKLSLQNCCLTGAGCGVLSSTLRTLPTLQELHLSDNLLGDAGLQLLCEGLLDPQCRLEKLQLEYCSLSAASCEPLASVLRAKPDFKELTVSNNDINEAGVRVLCQGLKDSPCQLEALKLESCGVTSDNCRDLCGIVASKASLRELALGSNKLGDVGMAELCPGLLHPSSRLRTLWIWECGITAKGCGDLCRVLRAKESLKELSLAGNELGDEGARLLCETLLEPGCQLESLWVKSCSFTAACCSHFSSVLAQNRFLLELQISNNRLEDAGVRELCQGLGQPGSVLRVLWLADCDVSDSSCSSLAATLLANHSLRELDLSNNCLGDAGILQLVESVRQPGCLLEQLVLYDIAWSEEMEDRLQALEKDKPSLRVIS
[1]
  sk_ddG_kJ (SKEMPI experimental ΔΔG): 3.43 kJ
[2]
  sk_class: Neutral (neutral (little effect) 4.184 kJ/mol < ΔΔG > −4.184 kJ/mol)

B5: 1A4Y WA263A (protein, UniProt P13489 2-461, looked up, variant W263A)
Ribonuclease inhibitor: SLDIQSLDIQCEELSDARWAELLPLLQQCQVVRLDDCGLTEARCKDISSALRVNPALAELNLRSNELGDVGVHCVLQGLQTPSCKIQKLSLQNCCLTGAGCGVLSSTLRTLPTLQELHLSDNLLGDAGLQLLCEGLLDPQCRLEKLQLEYCSLSAASCEPLASVLRAKPDFKELTVSNNDINEAGVRVLCQGLKDSPCQLEALKLESCGVTSDNCRDLCGIVASKASLRELALGSNKLGDVGMAELCPGLLHPSSRLRTLWIAECGITAKGCGDLCRVLRAKESLKELSLAGNELGDEGARLLCETLLEPGCQLESLWVKSCSFTAACCSHFSSVLAQNRFLLELQISNNRLEDAGVRELCQGLGQPGSVLRVLWLADCDVSDSSCSSLAATLLANHSLRELDLSNNCLGDAGILQLVESVRQPGCLLEQLVLYDIYWSEEMEDRLQALEKDKPSLRVIS
[1]
  sk_ddG_kJ (SKEMPI experimental ΔΔG): 4.85 kJ
[2]
  sk_class: Positive (positive (a hot residue) ΔΔG ≥ 4.184 kJ/mol)

B6: 1A4Y IA459A (protein, UniProt P13489 2-461, looked up, variant I459A)
Ribonuclease inhibitor: SLDIQSLDIQCEELSDARWAELLPLLQQCQVVRLDDCGLTEARCKDISSALRVNPALAELNLRSNELGDVGVHCVLQGLQTPSCKIQKLSLQNCCLTGAGCGVLSSTLRTLPTLQELHLSDNLLGDAGLQLLCEGLLDPQCRLEKLQLEYCSLSAASCEPLASVLRAKPDFKELTVSNNDINEAGVRVLCQGLKDSPCQLEALKLESCGVTSDNCRDLCGIVASKASLRELALGSNKLGDVGMAELCPGLLHPSSRLRTLWIWECGITAKGCGDLCRVLRAKESLKELSLAGNELGDEGARLLCETLLEPGCQLESLWVKSCSFTAACCSHFSSVLAQNRFLLELQISNNRLEDAGVRELCQGLGQPGSVLRVLWLADCDVSDSSCSSLAATLLANHSLRELDLSNNCLGDAGILQLVESVRQPGCLLEQLVLYDIYWSEEMEDRLQALEKDKPSLRVAS
[1]
  sk_ddG_kJ (SKEMPI experimental ΔΔG): 2.80 kJ
[2]
  sk_class: Neutral (neutral (little effect) 4.184 kJ/mol < ΔΔG > −4.184 kJ/mol)

B7: 1A4Y YA434A (protein, UniProt P13489 2-461, looked up, variant Y434A)
Ribonuclease inhibitor: SLDIQSLDIQCEELSDARWAELLPLLQQCQVVRLDDCGLTEARCKDISSALRVNPALAELNLRSNELGDVGVHCVLQGLQTPSCKIQKLSLQNCCLTGAGCGVLSSTLRTLPTLQELHLSDNLLGDAGLQLLCEGLLDPQCRLEKLQLEYCSLSAASCEPLASVLRAKPDFKELTVSNNDINEAGVRVLCQGLKDSPCQLEALKLESCGVTSDNCRDLCGIVASKASLRELALGSNKLGDVGMAELCPGLLHPSSRLRTLWIWECGITAKGCGDLCRVLRAKESLKELSLAGNELGDEGARLLCETLLEPGCQLESLWVKSCSFTAACCSHFSSVLAQNRFLLELQISNNRLEDAGVRELCQGLGQPGSVLRVLWLADCDVSDSSCSSLAATLLANHSLRELDLSNNCLGDAGILQLVESVRQPGCLLEQLVLADIYWSEEMEDRLQALEKDKPSLRVIS
[1]
  sk_ddG_kJ (SKEMPI experimental ΔΔG): 13.64 kJ
[2]
  sk_class: Positive (positive (a hot residue) ΔΔG ≥ 4.184 kJ/mol)

B8: 1AHW YC157A (protein, UniProt P13726 33-251, looked up, variant Y157A)
extracellular domain: SGTTNTVAAYNLTWKSTNFKTILEWEPKPVNQVYTVQISTKSGDWKSKCFYTTDTECDLTDEIVKDVKQTYLARVFSYPAGNVESTGSAGEPLYENSPEFTPYLETNLGQPTIQSFEQVGTKVNVTVEDERTLVRRNNTFLSLRDVFGKDLIYTLYAWKSSSSGKKTAKTNTNEFLIDVDKGENYCFSVQAVIPSRTVNRKSTDSPVECMGQEKGEFRE
modifications: extracellular domain
[1]
  sk_ddG_kJ (SKEMPI experimental ΔΔG): -7.91 kJ
[2]
  sk_class: Negative (negative (affinity enhancing) ΔΔG ≤ −4.184 kJ/mol)

B9: 1DAN IT22A (protein, UniProt P13726 33-251, looked up, variant I22A)
extracellular domain: SGTTNTVAAYNLTWKSTNFKTALEWEPKPVNQVYTVQISTKSGDWKSKCFYTTDTECDLTDEIVKDVKQTYLARVFSYPAGNVESTGSAGEPLYENSPEFTPYLETNLGQPTIQSFEQVGTKVNVTVEDERTLVRRNNTFLSLRDVFGKDLIYTLYYWKSSSSGKKTAKTNTNEFLIDVDKGENYCFSVQAVIPSRTVNRKSTDSPVECMGQEKGEFRE
modifications: extracellular domain
[1]
  sk_ddG_kJ (SKEMPI experimental ΔΔG): 2.72 kJ
[2]
  sk_class: Neutral (neutral (little effect) 4.184 kJ/mol < ΔΔG > −4.184 kJ/mol)

B10: 1AHW VC198A (protein, UniProt P13726 33-251, looked up, variant V198A)
extracellular domain: SGTTNTVAAYNLTWKSTNFKTILEWEPKPVNQVYTVQISTKSGDWKSKCFYTTDTECDLTDEIVKDVKQTYLARVFSYPAGNVESTGSAGEPLYENSPEFTPYLETNLGQPTIQSFEQVGTKVNVTVEDERTLVRRNNTFLSLRDVFGKDLIYTLYYWKSSSSGKKTAKTNTNEFLIDVDKGENYCFSVQAVIPSRTANRKSTDSPVECMGQEKGEFRE
modifications: extracellular domain
[1]
  sk_ddG_kJ (SKEMPI experimental ΔΔG): -1.30 kJ
[2]
  sk_class: Neutral (neutral (little effect) 4.184 kJ/mol < ΔΔG > −4.184 kJ/mol)

B11: 1DAN VT33A (protein, UniProt P13726 33-251, looked up, variant V33A)
extracellular domain: SGTTNTVAAYNLTWKSTNFKTILEWEPKPVNQAYTVQISTKSGDWKSKCFYTTDTECDLTDEIVKDVKQTYLARVFSYPAGNVESTGSAGEPLYENSPEFTPYLETNLGQPTIQSFEQVGTKVNVTVEDERTLVRRNNTFLSLRDVFGKDLIYTLYYWKSSSSGKKTAKTNTNEFLIDVDKGENYCFSVQAVIPSRTVNRKSTDSPVECMGQEKGEFRE
modifications: extracellular domain
[1]
  sk_ddG_kJ (SKEMPI experimental ΔΔG): -0.79 kJ
[2]
  sk_class: Neutral (neutral (little effect) 4.184 kJ/mol < ΔΔG > −4.184 kJ/mol)

B12: 1DAN VT36A (protein, UniProt P13726 33-251, looked up, variant V36A)
extracellular domain: SGTTNTVAAYNLTWKSTNFKTILEWEPKPVNQVYTAQISTKSGDWKSKCFYTTDTECDLTDEIVKDVKQTYLARVFSYPAGNVESTGSAGEPLYENSPEFTPYLETNLGQPTIQSFEQVGTKVNVTVEDERTLVRRNNTFLSLRDVFGKDLIYTLYYWKSSSSGKKTAKTNTNEFLIDVDKGENYCFSVQAVIPSRTVNRKSTDSPVECMGQEKGEFRE
modifications: extracellular domain
[1]
  sk_ddG_kJ (SKEMPI experimental ΔΔG): -0.54 kJ
[2]
  sk_class: Neutral (neutral (little effect) 4.184 kJ/mol < ΔΔG > −4.184 kJ/mol)

B13: 1AHW LC176A (protein, UniProt P13726 33-251, looked up, variant L176A)
extracellular domain: SGTTNTVAAYNLTWKSTNFKTILEWEPKPVNQVYTVQISTKSGDWKSKCFYTTDTECDLTDEIVKDVKQTYLARVFSYPAGNVESTGSAGEPLYENSPEFTPYLETNLGQPTIQSFEQVGTKVNVTVEDERTLVRRNNTFLSLRDVFGKDLIYTLYYWKSSSSGKKTAKTNTNEFAIDVDKGENYCFSVQAVIPSRTVNRKSTDSPVECMGQEKGEFRE
modifications: extracellular domain
[1]
  sk_ddG_kJ (SKEMPI experimental ΔΔG): 4.14 kJ
[2]
  sk_class: Neutral (neutral (little effect) 4.184 kJ/mol < ΔΔG > −4.184 kJ/mol)
